Laboratory results published in paper PMC7587433, “A Giant Extracellular Matrix Binding Protein of Staphylococcus epidermidis Binds Surface-Immobilized Fibronectin via a Novel Mechanism” (mBio, 2020).

Target: T1, rFN12-14 (recombinant fibronectin type III repeats 12 to 14)
T1 construct: fibronectin, type III repeats 12 to 14; Held by its His tag on Immobilizer Nickel-Chelate plates in the adherence assays; immobilised on a C1 sensor chip in SPR
Experiment: SPR; Biacore T200, C1 sensor chip; rFN12-14 immobilised (~870 RU); rF-, rFG-repeat or multiple repeats in HBS-EP injected at 40 μl/min; double referencing
Details: both partners purified

B1: r5FG-repeats (recombinant Embp fragment, aa 6777 to 7406) (domain or fragment)
chain: ADQKLQDAKTDAKQQITNFTGLTEPQKQALENIINQQTSRANVAKQLSHAKFLNGKMEELKVAVAKASLVRQNSNYINEDVSEKEAYEQAIAKGQEIINSENNPTISSTDINRTIQEINDAEQNLHGDNKLRQAQEIAKNEIQNLDGLNSAQITKLIQDIGRTTTKPAVTQKLEEAKAINQAMQQLKQSIADKDATLNSSNYLNEDSEKKLAYDNAVSQAEQLINQLNDPTMDISNIQAITQKVIQAKDSLHGANKLAQNQADSNLIINQSTNLNDKQKQALNDLINHAQTKQQVAEIIAQANKLNNEMGTLKTLVEEQSNVHQQSKYINEDPQVQNIYNDSIQKGREILNGTTDDVLNNNKIADAIQNIHLTKNDLHGDQKLQKAQQDATNELNYLTNLNNSQRQSEHDEINSAPSRTEVSNDLNHAKALNEAMRQLENEVALENSVKKLSDFINEDEAAQNEYSNALQKAKDIINGVPSSTLDKATIEDALLELQNARESLHGEQKLQEAKNQAVAEIDNLQALNPGQVLAEKTLVNQASTKPEVQEALQKAKELNEAMKALKTEINKKEQIKADSRYVNADSGLQANYNSALNYGSQIIATTQPPELNKDVINRATQTIKTAENNLN
  Kd: 10 µM
